The source of these data is US20210395743, “SELF-ASSEMBLING NUCLEIC ACID SURFACES FOR BIOSENSOR APPLICATIONS” (INSTITUT NATIONAL DE LA RECHERCHE SCIENTIFIQUE, published 2021).

This data set has as its target PDGF-BB (UniProt P01127 P01127:82-190). In words: SPR; aptamer on DNA honeycomb on gold; phosphate buffer 137 mM NaCl, 2.7 mM KCl, 1 mM MgCl2, pH 7.4. To be noted: chain copies: 2 (homodimer, inferred). As for the experimental part: The sensing surface was then exposed to the Platelet-derived growth factor aptamer which had been modified, as in Table III (SEQ ID NO:16), to include a 25 bp poly A tail at a concentration of 50 nM in 10 mM Tris pH 7.4 1 M NaCl 1 mM EDTA and incubated for an hour.
The sensing surface was washed with 10.1 mM Na₂HPO₄, 1.8 mM KH₂PO₄, 137 mM NaCl and 2.7 mM KCl, 1 mM MgCl2, pH 7.4. Detection of PDGF was performed in the same buffer where the surface was exposed to increasing concentrations of the ligands and response was recorded.
Background: In SPR one partner is held on a chip, and binding of the other changes the refractive index at the surface.

Sequence of PDGF-BB (P01127 82-190, one chain of several): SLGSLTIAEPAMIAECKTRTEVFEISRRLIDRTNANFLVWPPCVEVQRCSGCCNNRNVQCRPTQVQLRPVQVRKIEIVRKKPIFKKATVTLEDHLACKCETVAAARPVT

B1: PDGF-BB aptamer with 25-nt poly A tail (SEQ ID NO: 16), on honeycomb DNA scaffold (ssDNA)
DNA: CACAGGCTACGGCACGTAGAGCATCACCATGATCCTGTGAAAAAAAAAAAAAAAAAAAAAAAAA
Consider B1, for which the equilibrium dissociation constant (Kd) (as a rule, the equilibrium constant for the complex coming apart) is 28 nM.
